Measurements: the supplement of paper PMC11246515
± gives the standard deviation of the averaged measurements.

Assay: total protein half-life in vivo (active degradation + dilution); higher = more stable protein
[1] = E. coli NCM3722 delta-clpP, growth: N-lim chemostat, doubling time 6 h
[2] = E. coli NCM3722 delta-hslV, growth: N-lim chemostat, doubling time 6 h
[3] = E. coli NCM3722 delta-lon, growth: N-lim chemostat, doubling time 6 h
[4] = E. coli NCM3722 delta-smpB, growth: N-lim chemostat, doubling time 6 h
[5] = wild type E. coli NCM3722, growth: C-lim chemostat, doubling time 3 h
[6] = wild type E. coli NCM3722, growth: C-lim chemostat, doubling time 6 h
[7] = wild type E. coli NCM3722, growth: C-lim chemostat, doubling time 12 h
[8] = wild type E. coli NCM3722, growth: N-lim chemostat, doubling time 6 h
[9] = wild type E. coli NCM3722, growth: N-lim chemostat, doubling time 12 h
[10] = wild type E. coli NCM3722, growth: P-lim chemostat, doubling time 6 h
[11] = wild type E. coli NCM3722, growth: P-lim chemostat, doubling time 12 h
[12] = E. coli NCM3722 delta-clpP delta-lon delta-hslV, growth: N-lim chemostat, doubling time 6 h

Sequence | total protein half-life in vivo [1] [h] | total protein half-life in vivo [2] [h] | total protein half-life in vivo [3] [h] | total protein half-life in vivo [4] [h] | total protein half-life in vivo [5] [h] | total protein half-life in vivo [6] [h] | total protein half-life in vivo [7] [h] | total protein half-life in vivo [8] [h] | total protein half-life in vivo [9] [h] | total protein half-life in vivo [10] [h] | total protein half-life in vivo [11] [h] | total protein half-life in vivo [12] [h]
MISANRPIINLDLDLLRTFVAVADLNTFAAAAAAVCRTQSAVSQQMQRLEQLVGKELFARHGRNKLLTEHGIQLLGYARKILRFNDEACSSLMFSNLQGVLTIGASDESADTILPFLLNRVSSVYPKLALDVRVKRNAYMAEMLESQEVDLMVTTHRPSAFKALNLRTSPTHWYCAAEYILQKGEPIPLVLLDDPSPFRDMVLATLNKADIPWRLAYVASTLPAVRAAVKAGLGVTARPVEMMSPDLRVLSGVDGLPPLPDTEYLLCYDPSSNNELAQVIYQAMESYHNPWQYSPMSAPEGDDSLLIERDIE | 5.56 ± 0.33 | 2.546 ± 0.023 | 3.25 | 2.713 ± 0.022 | 2.45 ± 0.064 | 4.7 ± 0.26 | 7.62 ± 0.41 | 3.28 ± 1.1 | 3.66 ± 0.051 | 3.43 ± 0.079 | 6.34 ± 0.77 | 
MISDSKLLASAAWDAQSLNELKAKAGEDPAANIRPVARQVEGMFVQMMLKSMRDALPKDGLFSSEHTRLYTSMYDQQIAQQMTAGKGLGLAEMMVKQMTPEQPLPEESTPAAPMKFPLETVVRYQNQALSQLVQKAVPRNYDDSLPGDSKAFLAQLSLPAQLASQQSGVPHHLILAQAALESGWGQRQIRRENGEPSYNLFGVKASGNWKGPVTEITTTEYENGEAKKVKAKFRVYSSYLEALSDYVGLLTRNPRYAAVTTAASAEQGAQALQDAGYATDPHYARKLTNMIQQMKSISDKVSKTYSMNIDNLF |  |  |  |  | 0.391 |  |  |  |  |  |  | 
MISRVTEALSKVKGSMGSHERHALPGVIGDDLLRFGKLPLCLFICIILTAVTVVTTAHHTRLLTAQREQLVLERDALDIEWRNLILEENALGDHSRVERIATEKLQMQHVDPSQENIVVQK [P0AEN4] | 3.72 ± 0.074 | 2.91 | 4.25 ± 0.28 | 3.44 ± 0.1 | 2.6 ± 0.074 | 3.85 | 7.71 ± 1.4 | 4.3 ± 0.56 | 5.19 ± 0.39 | 4.04 ± 0.16 | 5.75 ± 1.9 | 4.86 ± 0.82
MISSLWIAKTGLDAQQTNMDVIANNLANVSTNGFKRQRAVFEDLLYQTIRQPGAQSSEQTTLPSGLQIGTGVRPVATERLHSQGNLSQTNNSKDVAIKGQGFFQVMLPDGSSAYTRDGSFQVDQNGQLVTAGGFQVQPAITIPANALSITIGRDGVVSVTQQGQAAPVQVGQLNLTTFMNDTGLESIGENLYTETQSSGAPNESTPGLNGAGLLYQGYVETSNVNVAEELVNMIQVQRAYEINSKAVSTTDQMLQKLTQL [P0ABX5] | > 8 |  |  |  | 1.53 ± 0.27 | 5.1 ± 3.6 | 6.45 ± 1.9 |  |  |  |  | 4.91 ± 2.6
MISVFDIFKIGIGPSSSHTVGPMKAGKQFTDDLIARNLLKDVTRVVVDVYGSLSLTGKGHHTDIAIIMGLAGNLPDTVDIDSIPSFIQDVNTHGRLMLANGQHEVEFPVDQCMNFHADNLSLHENGMRITALAGDKVVYSQTYYSIGGGFIVDEEHFGQQDSAPVEVPYPYSSAADLQKHCQETGLSLSGLMMKNELALHSKEELEQHLANVWEVMRGGIERGISTEGVLPGKLRVPRRAAALRRMLVSQDKTTTDPMAVVDWINMFALAVNEENAAGGRVVTAPTNGACGIIPAVLAYYDKFIREVNANSLARYLLVASAIGSLYKMNASISGAEVGCQGEVGVACSMAAAGLAELLGASPAQVCIAAEIAMEHNLGLTCDPVAGQVQVPCIERNAIAAVKAVNAARMALRRTSEPRVCLDKVIETMYETGKDMNAKYRETSRGGLAMKIVACD |  |  |  |  |  |  |  |  |  |  |  | 3.9
MITHFRQAIEETLPWLSSFGADPAGGMTRLLYSPEWLETQQQFKKRMAASGLETRFDEVGNLYGRLNGTEYPQEVVLSGSHIDTVVNGGNLDGQFGALAAWLAIDWLKTQYGAPLRTVEVVAMAEEEGSRFPYVFWGSKNIFGLANPDDVRNICDAKGNSFVDAMKACGFTLPNAPLTPRQDIKAFVELHIEQGCVLESNGQSIGVVNAIVGQRRYTVTLNGESNHAGTTPMGYRRDTVYAFSRICHQSVEKAKRMGDPLVLTFGKVEPRPNTVNVVPGKTTFTIDCRHTDAAVLRDFTQQLENDMRAICDEMDIGIDIDLWMDEEPVPMNKELVATLTELCEREKLNYRVMHSGAGHDAQIFAPRVPTCMIFIPSINGISHNPAERTNITDLAEGVKTLALMLYQLAWQK |  |  |  | 2.26 ± 0.15 | 2.76 ± 0.21 | 3.86 ± 0.11 | 7.08 ± 1.6 |  | 3.88 | 3.54 | 6.32 | 
MITIDGNGAVASVAFRTSEVIAIYPITPSSTMAEQADAWAGNGLKNVWGDTPRVVEMQSEAGAIATVHGALQTGALSTSFTSSQGLLLMIPTLYKLAGELTPFVLHVAARTVATHALSIFGDHSDVMAVRQTGCAMLCAANVQEAQDFALISQIATLKSRVPFIHFFDGFRTSHEINKIVPLADDTILDLMPQVEIDAHRARALNPEHPVIRGTSANPDTYFQSREATNPWYNAVYDHVEQAMNDFSAATGRQYQPFEYYGHPQAERVIILMGSAIGTCEEVVDELLTRGEKVGVLKVRLYRPFSAKHLLQALPGSVRSVAVLDRTKEPGAQAEPLYLDVMTALAEAFNNGERETLPRVIGGRYGLSSKEFGPDCVLAVFAELNAAKPKARFTVGIYDDVTNLSLPLPENTLPNSAKLEALFYGLGSDGSVSATKNNIKIIGNSTPWYAQGYFVYDSKKAGGLTVSHLRVSEQPIRSAYLISQADFVGCHQLQFIDKYQMAERLKPGGIFLLNTPYSADEVWSRLPQEVQAVLNQKKARFYVINAAKIARECGLAARINTVMQMAFFHLTQILPGDSALAELQGAIAKSYSSKGQDLVERNWQALALARESVEEVPLQPVNPHSANRPPVVSDAAPDFVKTVTAAMLAGLGDALPVSALPPDGTWPMGTTRWEKRNIAEEIPIWKEELCTQCNHCVAACPHSAIRAKVVPPEAMENAPASLHSLDVKSRDMRGQKYVLQVAPEDCTGCNLCVEVCPAKDRQNPEIKAINMMSRLEHVEEEKINYDFFLNLPEIDRSKLERIDIRTSQLITPLFEYSGACSGCGETPYIKLLTQLYGDRMLIANATGCSSIYGGNLPSTPYTTDANGRGPAWANSLFEDNAEFGLGFRLTVDQHRVRVLRLLDQFADKIPAELLTALKSDATPEVRREQVAALRQQLNDVAEAHELLRDADALVEKSIWLIGGDGWAYDIGFGGLDHVLSLTENVNILVLDTQCYSNTGGQASKATPLGAVTKFGEHGKRKARKDLGVSMMMYGHVYVAQISLGAQLNQTVKAIQEAEAYPGPSLIIAYSPCEEHGYDLALSHDQMRQLTATGFWPLYRFDPRRADEGKLPLALDSRPPSEAPEETLLHEQRFRRLNSQQPEVAEQLWKDAAADLQKRYDFLAQMAGKAEKSNTD | 3.16 ± 0.26 | 2.72 ± 0.21 | 2.87 ± 0.075 | 2.17 ± 0.18 | 2.14 ± 0.34 | 3.35 ± 0.38 | 5.06 ± 0.26 | 2.57 ± 0.12 | 3.64 ± 0.31 | 3.77 ± 0.17 | 6.3 ± 0.33 | 4.62 ± 0.54
MITIPITLRMLIAKYLCLLKPFWLRKNNKTSVLLIIIILAMILGVVKIQVWLNDWNNDFFNALSQKETDKLWQLVLWFPALLGIFVLISVNKTWLIKLLTIRWREWLTDYYLNRWFADKNYYFTQIYGEHKNTDNPDQRIAEDILLLISKTLSLSFGFIQSLSMLITFTVILWESAGTLSFTVGGTEWNIQGYMVYTVVLIVIGGTLFTHKVGKRIRPLNVEKQRSEATFRTNLVQHNKQAELIALSNAESLQRQELSDNFHTIKENWHRLMNRQRWLDYWQNIYSRSLSVLPYFLLLPQFISGQINLGGLMKSRQAFMLVSNNLSWFIYKYDELAELAAVIDRLYEFHQLTEQRPTNKPKNCQHAVQVADASIRTPDNKIILENLNFHVSPGKWLLLKGYSGAGKTTLLKTLSHCWPWFKGDISSPADSWYVSQTPLIKTGLLKEIICKALPLPVDDKSLSEVLHQVGLGKLAARIHDHDRWGDILSSGEKQRIALARLILRRPKWIFLDETTSHLEEQEAIRLLRLVREKLPTSGVIMVTHQPGVWNLADDICDISAVL |  |  |  |  | 3.2 ± 0.6 | 5.29 ± 0.53 | 11.5 ± 1.1 |  |  |  |  | 
MITRIPRSSFSANINNTAQTNEHQTLSELFYKELEDKFSGKELATPLLKSFSENCRQNGRHIFSNKDFVIKFSTSVLQADKKEITIINKNENTTLTQTIAPIFEKYLMEILPQRSDTLDKQELNLKSDRKEKEFPRIKLNGQCYFPGRPQNRIVCRHIAAQYINDIYQNVDYKPHQDDYSSAEKFLTHFNKKCKNQTLALVSSRPEGRCVAACGDFGLVMKAYFDKMESNGISVMAAILLVDNHALTVRLRIKNTTEGCTHYVVSVYDPNVTNDKIRIMSESKENIKHYSLMDFMNVDYSLLKWSNDHVINQSVAIIPALPKEQLLMLKGSVDEITPPLSPATMNLLMAIGQNHQLTQLMIQLQKMPELHRTEMLTAYNSINLPGLYLAINYGNADIVETIFNSLSETGYEGLLSKKNLMHILEAKDKNGFSGLFLAISRKDKNVVTSILNALPKLAATHHLDNEQVYKFLSAKNRTSSHVLYHVMANGDADMLKIVLNALPLLIRTCHLTKEQVLDLLKAKDFYGCPGLYLAMQNGHSDIVKVILEALPSLAQEINISASDIVDLLTAKSLARDTGLFMAMQRGHMNVINTIFNALPTLFNTFKFDKKNMKPLLLANNSNEYPGLFSAIQHKQQNVVETVYLALSDHARLFGFTAEDIMDFWQHKAPQKYSAFELAFEFGHRVIAELILNTLNKMAESFGFTDNPRYIAEKNYMEALLKKASPHTVR |  |  |  |  |  | 5.49 |  |  |  |  |  | 
MITYHDAFAKANHYLDDADLPVVITLHGRFSQGWYFCFEAREFLETGDEAARLAGNAPFIIDKDSGEIHSLGTAKPLEEYLQDYEIKKATFGLP |  |  |  |  |  |  |  |  |  |  |  | 4.62 ± 0.3
MIVKKLTLPKDFLWGGAVAAHQVEGGWNKGGKGPSICDVLTGGAHGVPREITKEVLPGKYYPNHEAVDFYGHYKEDIKLFAEMGFKCFRTSIAWTRIFPKGDEAQPNEEGLKFYDDMFDELLKYNIEPVITLSHFEMPLHLVQQYGSWTNRKVVDFFVRFAEVVFERYKHKVKYWMTFNEINNQRNWRAPLFGYCCSGVVYTEHENPEETMYQVLHHQFVASALAVKAARRINPEMKVGCMLAMVPLYPYSCNPDDVMFAQESMRERYVFTDVQLRGYYPSYVLNEWERRGFNIKMEDGDLDVLREGTCDYLGFSYYMTNAVKAEGGTGDAISGFEGSVPNPYVKASDWGWQIDPVGLRYALCELYERYQRPLFIVENGFGAYDKVEEDGSINDDYRIDYLRAHIEEMKKAVTYDGVDLMGYTPWGCIDCVSFTTGQYSKRYGFIYVNKHDDGTGDMSRSRKKSFNWYKEVIASNGEKL | 5.12 ± 0.34 | 5.44 ± 0.26 | 5.46 ± 0.0062 | 4.985 ± 0.0067 | 3.08 ± 0.12 | 5.89 ± 0.32 | 10.03 ± 0.031 | 4.85 ± 0.075 | 9.46 ± 0.4 | 6.17 ± 0.47 | 11.1 ± 0.41 | 5.79 ± 0.69
MIVLPRRLSDEVADRVRALIDEKNLEAGMKLPAERQLAMQLGVSRNSLREALAKLVSEGVLLSRRGGGTFIRWRHDTWSEQNIVQPLKTLMADDPDYSFDILEARYAIEASTAWHAAMRATPGDKEKIQLCFEATLSEDPDIASQADVRFHLAIAEASHNIVLLQTMRGFFDVLQSSVKHSRQRMYLVPPVFSQLTEQHQAVIDAIFAGDADGARKAMMAHLSFVHTTMKRFDEDQARHARITRLPGEHNEHSREKNA [P0ACL7] | 2.72 |  |  | 2.04 | 1.28 | 2.86 ± 0.55 | 2.72 |  | 2.87 |  |  | 5.57
